In patent publication US11912782B2, “BCMA monoclonal antibody-drug conjugate” (MedImmune, LLC, priority 2017, dated 2024):

Columns and labels:
MM.1S cells = assay: Cell killing in the presence of soluble BCMA (conditioned media from Ad293 cells expressing human BCMA); format: cell-based; conditions: MM.1S and NCI-H929, sBCMA at levels up to 720 ng/mL
Procedure: (§1) Killing of multiple myeloma and plasma cell leukemia cell lines by antibody-drug conjugates comprising 15B2GL, or affinity-optimized clones thereof, conjugated to SG3249 was evaluated in vitro using the protocol recommended in the CELLTITER-GLO® kit (Promega, Madison, Wis.). Killing of multiple myeloma and plasma cell leukemia cell lines by the free warhead SG3199 also was evaluated using the protocol recommended in the CELLTITER-GLO® kit (Promega, Madison, Wis.). Briefly, 5×10^3 cells in 80 μL RPMI+10% FBS were added to the inner wells of white-walled 96-well plates (Corning® Costar®, Fisher Scientific, Waltham, Mass.). The following BCMA-expressing cell lines were tested: NCI-H929, EJM, MM.1R. JJN3, OPM-2, MM.1S, U266.B1, and L363. BMCA-negative cell lines Raji and Jurkat also were tested. The antibody-drug conjugates were diluted to a 5× stock (2.5 μg/mL) in RPMI+10% FBS. Treatments were then serially diluted 1:3 in RPMI+10% FBS. 20 μL of this series was added to the cells in duplicate, resulting in a 12-point dose curve of antibody-drug conjugate ranging from 0.5 μg/mL at the highest concentration to 3×10^−6 vg/mL at the lowest. Isotype antibody-drug conjugate (IgG1-SG3249 and IgG1-mc-MMAF) and media-only controls also were included. Plates were incubated at 37° C., 5% CO2 for 96 hours. At the end of the incubation period, 100 μL of the Substrate Solution (Promega, Madison Wis.) was added to each well. Luminescence was measured using an EnVision™ Multilabel plate reader (Perkin Elmer, Waltham, Mass.). Data were analyzed and graphed using GraphPad Prism™ software (GraphPad Software, Inc., La Jolla, Calif.), and the half-maximal inhibitory concentration (IC50) was determined.
The ability of the 15B2GL-SG3249 ADC to kill multiple myeloma cells in vitro in the presence of soluble BCMA (sBCMA) as compared to the I09-5G3249 ADC was evaluated in MM.1S cells using the protocol described above, except that tested cell lines also were treated with BCMA-containing conditioned media collected from Ad293 cells expressing human BCMA (FIGS. 3A and 3B). 15B2GL-SG3249 ADC cell killing in the presence of sBCMA also was compared to ADCs comprising the anti-BCMA antibody J6M0, which is described in U.S. Pat. No. 9,273,141.

MM.1S xenograft = assay: MM.1S subcutaneous xenograft model (Example 5); format: in vivo, mouse; conditions: single intravenous dose 1 mg/kg, observed for 99 days post tumor implantation
Excerpt: (§2) Subcutaneous xenograft mouse models of multiple myeloma and plasma cell leukemia were generated by implanting BCMA-expressing multiple myeloma or plasma cell leukemia cell lines (i.e., NCI-H929, JJN-3, MM.1S, and MM.1R) into female CB-17 SCID (C.B-17/IcrHsd-Prkdc-scid) or athymic nude (Foxn1^nu) mice using MATRIGEL™ (BD Biosciences, San Jose, Calif.). Once tumors reached approximately 180 mm^3 (NCI-H929 cells), 190 mm^3 (JJN3 cells), 160 mm^3 (MM.1S cells), or 175 mm^3 (MM.1R cells), mice were randomized based on tumor size and placed into dosing groups and treated with BCMA-targeting ADCs as described below.
Mice were treated with either a single intravenous dose of 15B2GL-SG3249, 109-SG3249, L15-SG3249 ADCs at 1 mg/kg or dosed intravenously with J6M0-mc-MMAF twice weekly at a dose of 1 mg/kg for 4 weeks. Control mice were left untreated.

JJN3 xenograft = assay: JJN3 subcutaneous xenograft model; format: in vivo, mouse; conditions: single intravenous dose 1 mg/kg, observed for 104 days post tumor implantation
Excerpt: as §2
Mice were treated with either a single intravenous dose of 15B2GL-SG3249, 109-SG3249, and L15-SG3249 ADCs at 1 mg/kg, or dosed intravenously with J6M0-mc-MMAF ADC weekly at a dose of 1 mg/kg for 3 weeks. Control mice were left untreated.

[1] = tested on: MM stem cells (clonogenic cells in MM bone marrow biopsies); assay: Clonogenic (colony formation) assay on MM patient bone marrow samples; format: cell-based, human
Procedure: In particular, cells were counted using a ViCELL™ counter (Beckmann-Coulter Life Sciences, Indianapolis, Ind.) and resuspended in IMDM+2% FBS at 10-fold higher density than required for plating. METHOCULT™ H4434 Classic (StemCell Technologies, Inc., Vancouver, BC, Canada) was mixed with 2000 cells per mL for MM263, MM284, and MM276, and 4000 cells per mL for MM277 following the manufacturer's instructions. 25-400 ng per mL of the test ADCs 15B2GL-SG3249 and J6M0-mc-MMAF was then added to appropriate tubes. A control IgG1-SG3249 antibody was added at only the high dose of 400 ng per mL. All tubes were vortexed thoroughly to mix and then allowed to sit undisturbed, allowing air bubbles to rise to the top. Once the bubbles had risen, 400 μL was removed with a 16-guage blunt end needle and carefully plated into one well of a 24-well ultralow attachment plate (VWR, Radnor, Pa.). Each treatment was plated in duplicate in the inner wells of the plate. PBS was added to the outer wells and the plate was incubated at 37° C. for 7-10 days. Colonies were counted by eye with documentation of colony formation by scanning plates on a Celigo® Image Cytometer (Nexcelom Biosciences, Lawrence, Mass.).

Jurkat = assay: In vitro cytotoxicity, CELLTITER-GLO, 96 hours (BCMA-negative line); format: cell-based; conditions: T-lymphocyte, BCMA receptor number 0
Procedure: as §1, with “20 μL of this series was added to the cells in duplicate, resulting in a 12-point dose curve of antibody-drug conjugate ranging from 0.5 μg/mL at the highest concentration to 3×10^−6 vg/mL at the lowest. Isotype antibody-drug conjugate (IgG1-SG3249 and IgG1-mc-MMAF) and media-only controls also were included. Plates were incubated at 37° C., 5% CO2 for 96 hours. At the end of the incubation period, 100 μL of the Substrate Solution (Promega, Madison Wis.) was added to each well.” left out

Raji = assay: as above; format: cell-based; conditions: Burkitt's lymphoma, BCMA receptor number 0
Procedure: as §1, with “20 μL of this series was added to the cells in duplicate, resulting in a 12-point dose curve of antibody-drug conjugate ranging from 0.5 μg/mL at the highest concentration to 3×10^−6 vg/mL at the lowest. Isotype antibody-drug conjugate (IgG1-SG3249 and IgG1-mc-MMAF) and media-only controls also were included. Plates were incubated at 37° C., 5% CO2 for 96 hours. At the end of the incubation period, 100 μL of the Substrate Solution (Promega, Madison Wis.) was added to each well.” left out

MM.1R xenograft = assay: MM.1R subcutaneous xenograft model; format: in vivo, mouse; conditions: single intravenous dose 1 mg/kg, observed for 109 days post tumor implantation
Excerpt: as §2
Mice were treated with either a single intravenous dose of 15B2GL-SG3249 at 1 mg/kg or dosed intravenously with J6M0-mc-MMAF weekly at a dose of 3 mg/kg for 4 weeks. Control mice were left untreated.

NCI-H929 xenograft = assay: NCI-H929 subcutaneous xenograft model (Example 5); format: in vivo, mouse; conditions: single intravenous dose 0.3 mg/kg, observed for 99 days post tumor implantation
Excerpt: as §2
Mice were treated with either a single intravenous dose of the ADCs 15B2GL-SG3249, I09-5G3249, L15-SG3249 at 0.3 mg/kg or dosed intravenously with J6M0-mc-MMAF weekly at a dose of 0.3 mg/kg for 2 weeks. Control mice were left untreated.

B1: 15B2GL-SG3249: ADC: 15B2GL monoclonal antibody site-specifically conjugated to the PBD payload SG3249 (conjugate)
VH: EVQLVESGGGLVKPGGSLRLSCAASGFTFRSYSMNWVRQAPGKGLEWVSSISGSSNYIYYADSVKGRFTISRDNAKNSLYLQMNSLRAEDTAVYYCARGGNYYVEYFQYWGQGTLVTVSS
VL: EIVLTQSPGTLSLSPGERATLSCRASQYISSNYLAWYQQKPGQAPRLLIYGASNRATGIPDRFSGSGSGTDFTLTISRLEPEDFAVYYCQQYGSSPITFGQGTKLEIK
tumor cells killed (average) (MM.1S cells): 95% | tumor regrowth (MM.1S xenograft): no evidence of tumor regrowth | tumor regrowth (JJN3 xenograft): no evidence of tumor regrowth | colonies killed / reduction in colony formation ([1]; patient sample MM263, 400 ng/mL): 100% | colonies killed / reduction in colony formation ([1]; patient sample MM276, 400 ng/mL): 87.5% | colonies killed / reduction in colony formation ([1]; patient sample MM277, 400 ng/mL): 91% | colonies killed / reduction in colony formation ([1]; patient sample MM284, 400 ng/mL): 100% | IC50 (Jurkat): >0.5 µg/mL | IC50 (Raji): >0.5 µg/mL | tumor regrowth (MM.1R xenograft): no evidence of tumor regrowth | tumor regrowth (NCI-H929 xenograft): no evidence of tumor regrowth
